What was measured:
Assay in all cases: peptide microarray, anti-mouse IgG DyLight 650, MMC2 heatmap (Example 17)
Peptide_009 = target: T1, Peptide_009
T1 peptide: SQHHHHHHHHVKQIE
Method: (§1) 5, 1, 0.2, 0.04, 0.008 and 0.0016 μg/mL serial dilutions were incubated on a single multi-well microarray slide at 30° C. for 1 hour. The slide includes 21 individual mini-arrays (one mini-array per sample dilution).
(§2) DyLight 650 was used as a label. False-positive binding to a peptide was evaluated by performing one additional control incubation in which only a secondary antibody was applied on the same microarray slide. Before performing each step, the microarrays were washed with a washing buffer.
(§3) To visualize the obtained results and compare binding regions across individual cultures, as shown in FIGS. 21A to 21D, heatmap diagrams were calculated. In FIGS. 21A to 21D, the fluorescence intensity is expressed in a color-coded manner, white indicates no binding, and red indicates strong binding. For all evaluations, the MMC2-value of the average pixel fluorescence for each peptide was calculated.

Peptide_028 = target: T2, Peptide_028
T2 peptide: FQEALDAAGDKLVVV
Method: as §1, §2, §3

Peptide_030 = target: T3, Peptide_030
T3 peptide: EALDAAGDKLVVVDF
Method: as §1, §2, §3

Peptide_034 = target: T4, Peptide_034
T4 peptide: AAGDKLVVVDFSATW
Method: as §1, §2, §3

Peptide_035 = target: T5, Peptide_035
T5 peptide: AGDKLVVVDFSATWC
Method: as §1, §2, §3

Peptide_039 = target: T6, Peptide_039
T6 peptide: LVVVDFSATWCGPCK
Method: as §1, §2, §3

Peptide_042 = target: T7, Peptide_042
T7 peptide: VDFSATWCGPCKMIK
Method: as §1, §2, §3

Peptide_059 = target: T8, Peptide_059
T8 peptide: FHSLSEKYSNVIFLE
Method: as §1, §2, §3

Peptide_060 = target: T9, Peptide_060
T9 peptide: HSLSEKYSNVIFLEV
Method: as §1, §2, §3

Peptide_061 = target: T10, Peptide_061
T10 peptide: SLSEKYSNVIFLEVD
Method: as §1, §2, §3

Peptide_065 = target: T11, Peptide_065
T11 peptide: KYSNVIFLEVDVDDC
Method: as §1, §2, §3

Peptide_070 = target: T12, Peptide_070
T12 peptide: IFLEVDVDDCQDVAS
Method: as §1, §2, §3

Peptide_072 = target: T13, Peptide_072
T13 peptide: LEVDVDDCQDVASEC
Method: as §1, §2, §3

Peptide_074 = target: T14, Peptide_074
T14 peptide: VDVDDCQDVASECEV
Method: as §1, §2, §3

Peptide_075 = target: T15, Peptide_075
T15 peptide: DVDDCQDVASECEVK
Method: as §1, §2, §3

Peptide_077 = target: T16, Peptide_077
T16 peptide: DDCQDVASECEVKCM
Method: as §1, §2, §3

Peptide_079 = target: T17, Peptide_079
T17 peptide: CQDVASECEVKCMPT
Method: as §1, §2, §3

Peptide_080 = target: T18, Peptide_080
T18 peptide: QDVASECEVKCMPTF
Method: as §1, §2, §3

Peptide_089 = target: T19, Peptide_089
T19 peptide: KCMPTFQFFKKGQKV
Method: as §1, §2, §3

Peptide_091 = target: T20, Peptide_091
T20 peptide: MPTFQFFKKGQKVGE
Method: as §1, §2, §3

Peptide_099 = target: T21, Peptide_099
T21 peptide: KGQKVGEFSGANKEK
Method: as §1, §2, §3

Peptide_102 = target: T22, Peptide_102
T22 peptide: KVGEFSGANKEKLEA
Method: as §1, §2, §3

Peptide_002 = target: T23, Peptide_002
T23 peptide: ATAADVHSQHHHHHH
Method: as §1, §2, §3

Peptide_103 = target: T24, Peptide_103
T24 peptide: VGEFSGANKEKLEAT
Method: as §1, §2, §3

Peptide_106 = target: T25, Peptide_106
T25 construct: also called FSGANKEKLEATINE
T25 peptide: FSGANKEKLEATINE
Method: as §1, §2, §3

Peptide_108 = target: T26, Peptide_108
T26 peptide: GANKEKLEATINELV
Method: as §1, §2, §3

Peptide_006 = target: T27, Peptide_006
T27 peptide: DVHSQHHHHHHHHVK
Method: as §1, §2, §3

Peptide_005 = target: T28, Peptide_005 (human)
T28 construct: 15-mer on microarray; not native form, recombinant insert region
T28 peptide: ADVHSQHHHHHHHHV
Method: as §1, §2, §3

B1: monoclonal antibody B264 (antibody, mouse IgG1, kappa, V domains shown)
VH: QVQLQQSGAELARPGASVKMSCKASGYTFTSYTMHWVKQRPGQGLEWIGYINPTSDYTNYNQKFKDKATLTADKSSSTAYMQLSSLTSEDSAVYFCASEGGFLYYFDYWGQGTTLTVSS
VL: DVLMTQTPLSLPVSLGDQASISCRSSQSIVHSNGNTYLEWYLQKPGQSPKLLIYKVSNRFSGVPDRFSGSGSGTDFTLKISRVEAEDLGVYYCFQGSHVPYTFGGGTKLEIKR
notes: also called AB264; B264 (Trx1-mIgG1)
binding result (Peptide_009): no binding (tested: 5 ug/mL) | binding result (Peptide_028): no binding (tested: 5 ug/mL) | binding result (Peptide_030): no binding (tested: 5 ug/mL) | binding result (Peptide_034): no binding (tested: 5 ug/mL) | binding result (Peptide_035): no binding (tested: 5 ug/mL) | binding result (Peptide_039): binds | binding result (Peptide_042): no binding (tested: 5 ug/mL) | binding result (Peptide_059): no binding (tested: 5 ug/mL) | binding result (Peptide_060): binds | binding result (Peptide_061): no binding (tested: 5 ug/mL) | binding result (Peptide_065): no binding (tested: 5 ug/mL) | binding result (Peptide_070): no binding (tested: 5 ug/mL) | binding result (Peptide_072): no binding (tested: 5 ug/mL) | binding result (Peptide_074): no binding (tested: 5 ug/mL) | binding result (Peptide_075): no binding (tested: 5 ug/mL) | binding result (Peptide_077): no binding (tested: 5 ug/mL) | binding result (Peptide_079): no binding (tested: 5 ug/mL) | binding result (Peptide_080): no binding (tested: 5 ug/mL) | binding result (Peptide_089): no binding (tested: 5 ug/mL) | binding result (Peptide_091): no binding (tested: 5 ug/mL) | binding result (Peptide_099): no binding (tested: 5 ug/mL) | binding result (Peptide_102): no binding (tested: 5 ug/mL) | binding result (Peptide_002): no binding (tested: 5 ug/mL) | binding result (Peptide_103): no binding (tested: 5 ug/mL) | binding result (Peptide_106): no binding (tested: 5 ug/mL) | binding result (Peptide_108): no binding (tested: 5 ug/mL) | binding result (Peptide_006): binds | binding result (Peptide_005): no binding (tested: 5 ug/mL)

Source: patent US20240192215A1 (E AND S HEALTHCARE, published 2024)
